Test results reported in the DeepSol protein solubility set.

Assay: soluble on expression in E. coli; label from the status in PepcDB or PDB records

**Q.** With “MAHHHHHHMKRAAKGEVVFDEDIRRLCDKGVNNLPGWSLAAAEVKAAVRNSTKHFLDAAAEEARNPTTTSAPEKLEGCYKSVHNARRGHAVELPDGVERTKTGTGMGMHEGRPEQSWSYKKADDAIEKNDGVQQFGAAPPVLMVLTLDKGWPYSWNRIQDLPKDVFVNCEVDRVWQTVKGDVTAWFSPHGGTDFTPKQRVLIGTPGIGKSMAAGSYLLYQLLHCDAKKLQVVVHRFGGGDAYVSDKITRAVTKYSDEDMCISELRRLRGYGRNVYIIYDVAKEGTPPPRHFAPTSGWGMIVVSFPKVTNYDEWEKQLHAARIIMNCPDESDVRAMCIWKEYNGQVEEEADYWKKVKDRMDKVGPILRFIFDN” as the sequence, how does the “soluble on expression in E. coli” value read?
**A.** not soluble

**Q.** With “MAHHHHHHMKRFFKSDGTPYNRDAANNLYGSEHTHRGGVEALSEGVAAGQYGEHKPRAIMFVNKRPVEIIPQEENLLEVLEREGIRVPKFCYHPILSVAGNCRMCLVQVDGTQNLVVSCATVALPGMSIITDSRLVRDAREGNVELILINHPNDCPICEQATNCDLQNVSMNYGTDIPRYKEDKRAVQDFYFDPQTRVVLNRCIHCTRCVRFLNEHAQDFNLGMIGRGGLSEISTFLDELEVKTDNNMPVSQLCPVGKIYLGDADENNLIAEQLDVSYESECGDRGTVTLGK” as the sequence, how does the “soluble on expression in E. coli” value read?
**A.** not soluble

**Q.** Which “soluble on expression in E. coli” value does the source give for “MAHHHHHHMKSATMSATHALRDKWFVSFLPLLTADMVNTDYKGNWQLAAQERTQKLDWITSVEELWSTMNSLPKVHQLGMGSTLIFARNNKEPPSYEAYPNGSRIMINLLKPPTTDAGLELVLAVVMGETAAEKASDGKPVCDVLRIAARPSREHSEQIRVEVWLSDSTRSHAVAEFLAEAMRAKGLAANSYNIAEASFDAAAPGKDKKVLAASTMPSPSSPPMVKD” here?
**A.** soluble

**Q.** With “MAHHHHHHMKVENSKMEVKREQSYSNEDEEINEEDLNWWEQENLRIAMKGERRWETLAHNGVLFPPEYEPHGIPIFYDGREFKMTPEEEEVATMFAVMKEHDYYRMEVFRRNFFESWREILGKRQHPIRRLELCDFEPIYQWYLVQREKKLSRTKEEKKAIKEKQDAEAEPYRYCVWDGRREQVANFRVEPPGLFRGRGKHPLMGKLKVRVQPEDITINIGETAEVPVPPAGHKWAAVQHDHTVTWLAMWRDNVAGNMKYVMLAPSSSVKGQSDMVKFEKARKLKDKVDDIRASYMEAFKSNDLHVAQRAVAMYFIDRLALRVGNEKGEDEADTVGCCSLRVEHIQLMPDNIVRFDFLGKDSIRYQNDVAVLPEVYALLQRFTCRKSPGMDIFDQLNPTQLNDHLKSFMDGLSAKVFRTYNASITLDRWFKEKPVDPKWSTADKLAYFNKANTEVAILCNHQKSVSKNFKLQMMQLTTKSEYTRKTLELLEKAEVTAKKKSVEEAAKEFLEEQDRMQREWLESYGTEEQKKEFEEIVAKRAAPRVRSEKKSSSGTKKAKSASGKTRAATKKKSAKKSGKASSKKAARKSSKKAPKRSKEEDEDDVPLMSMAAKTKKTAGVKRQRAVKVASDDDDVPLAALRV” as the sequence, how does the “soluble on expression in E. coli” value read?
**A.** not soluble

**Q.** With “MAHHHHHHMLESFEFDQERKEALNTVAELIASTIEGAESQDVHDVLSSSLHLPHNWQEIVQKRAEQRRKLSATFTLFCEETIATPSTDGNAALDISEAPATCFLPELRPKTMPPVTTSATRGFECPSCGNHWDVVDARKSLRNSNTSSAVRELSNADVGFCPVCEDI” as the sequence, how does the “soluble on expression in E. coli” value read?
**A.** not soluble

**Q.** Which “soluble on expression in E. coli” value does the source give for “MAHHHHHHMLHEVNVGTSDIVRGGHGGDEAATPQQPPALSVVEEHIQRIRLELCGQRHPPSGYASAIAIPSTAAGLDRVAVLVDLLDQVRYWAIEEAFTFKDEPSRLAETEAPEAVVACLCSQRPQLVAQALRVVQPMLRHRQTAYETRRVMVDVWAYREQVNSMVPLPEGLDPLLAMLAEFLEQHKGVLPVLVEALSTATAALVQDGTACVGSDNGNDDNLDGGVSLRRRVAPLVVALHETTLVYQMESAMRRHPDAVPLQVEGVSFCAALVDLPWPFEAEVDSEEGTPTSLADILAHSDGVLDVLHGALRRHRQNLCIARGVLHVWRVCAQHPANRVPLLQHGAYAGALQQLRGVLPYAVGVWREIAETVGYFIPLLDALQRRSLALTLRELLLRRPQLEMLELILALLLSLLMVV” here?
**A.** not soluble

**Q.** For “MAHHHHHHMLIPVRCYSCGKVVGHLYELYQELLNQDHTEAEALNALRLSRMCCRRMILSHIDLADDLLPYSVPVVGSMPLINPVQGPVPRRQ”, which “soluble on expression in E. coli” value is on record?
**A.** not soluble

**Q.** Which “soluble on expression in E. coli” value does the source give for “MAHHHHHHMLLQFNWDRLDVTAAEAICALLNAKLEEELLLRRAANQSVNASGGQETASADAACGVESLRVTNIEWGNVPPFIEVVELDDAVEFASSTPLSFEAPLGQQDFGGTISSGTCGGGATTPFFLRPSPASSVTMMDGISETDSGIVGNHGGMPTPSVPPASGIRPGNGQSPINSSSAPVKDAFAAYFGPKGLYVCLHVTYGGPMRVSVASVLRHDVPLGPIAIPVRMPLQLHFSKMDMDFHLCINLHRNTCRVWMEPGKLFTSPLNRMNVMAVFGERRPSSQHMAEFPTSGQNAGDDLDTSDAWTHVGSSRIGSDDAEDMVFIDESIISQFVLKEVRAILQEKIIYPHSVVVPLSL” here?
**A.** not soluble

**Q.** For “MAHHHHHHMLLVGFKPCEIVFLVDTLLGSGVSRLPQLFSFFFGGGVHSCARQRKSRKGFAPPNWHPLPRPRRLTAFPYHSQVVAHKRVVRRLLTINNLVFNCCGNLFLPICTLHPKFPFTNDLSQYVVTCEFPPLQLHFSTQAPKNCFRKQLDLVLCSINVAVDVFHPALLRTFRWIC”, which “soluble on expression in E. coli” value is on record?
**A.** soluble

**Q.** For “MAHHHHHHMLNLSSLLISKKNVKDDGNNSSENEVGGNNDVSSLNNDCVKIKLINMQEYKTKKLLDERKNVNVWSANNKKDNDKKEKKKEKKNEQPKKKESVVTKPKAVGENDTKKIENKDIENKNVTPKKLFVPSAIKQQQQKEALKNKQTPKKEEELFPDLIQSKKSNKTEKEKKKTQPAKKSKKEKADKKVQESTKEQENEFPQIEEIEKIHFNIFDFIDMEKQTYEHIVRNSEKVLQKYKNRSKFVDSMIMCN”, which “soluble on expression in E. coli” value is on record?
**A.** not soluble

**Q.** For “MAHHHHHHMLRDELPPEKGQQSFSLWSRILRSIDGCKLEIVLDDQTEADKIKVVDIYDKVSERFPLYSWKEPVKGRVVVTPTGSSYSHQGVVVELIGVASTFREVESRVVFLRQERQFEPDTLNQSTPFEFTFSAPKEHESYHGIYARVRYFVQATVKQRIKSPSVKEEVWVHRVDTALSESQTDASAHMNYFRETCFGPESIAMNVGVDNVLHIEFRYDKKIFHLAERVLGKVEYKVADMDIAYGEVGLVRKEFLAPGQTDETMESETLQKFEIMDGTPIVEEVVPIRLYLKSVPRLTPSYMDVENLFSVRYFLNLVLVNQEGKRYFKQQEIQLYRRTGQERSATSFNSGLPVTPASGDVDAKGGWSA”, which “soluble on expression in E. coli” value is on record?
**A.** not soluble

**Q.** For “MAHHHHHHMLRMKLVTYFEGFFFMATANDLPAAFRGSNCLQVQVNSKSGSKRVIRLVFIRHGQSVWNSLFNSFDATWPVRAVKAMVNEAVYFFTNPFDSVIVDSPLSEKGRSEAQELARFVRSAKGQVCFDASCSLIVCSNLRRAMETALVGMQPRIVSTGERIVVDSSLQEGSRNIDAQSLSTEPGKIVPCKMGELATPQLLGTAFDPHLNGGNRTAKRNVYDRMDEFVQHLFGGVKSNPYVPASGAESGNSALKEVIVVGHSGYFRCFFKRFLPSSSRHVAKTKKLKNCAVVSFDLVRNESTGEVYIEESTVSVLYKGF”, which “soluble on expression in E. coli” value is on record?
**A.** not soluble

**Q.** Which “soluble on expression in E. coli” value does the source give for “MAHHHHHHMLRRTARRAMGNSRFSGSKERDRIEQERRRRLLYDAAGNLQLGGLLLMMYDDFKKPAAIGLGMVAFLYGYNRLVVRLSREEEAEGLQLDAKSEAVARQTGKLKADRYLVKPNRQIDDPDFLNIPAFGGRGVSSSKLLSDDSVSGGALHSERKRS” here?
**A.** not soluble

**Q.** Which “soluble on expression in E. coli” value does the source give for “MAHHHHHHMLSLCKSLSSDAPTRTKTRVVLSMFNASHVDELLASTTRTLQRSQVLLDERRSVIQSQQGLPPMFCVASSSAASTSVGSSAAAPYASASSSFADTVRSLQSLSELRSYVEATAEMMKRVREEGMEPSPAMQQRRARGQDFALLQSMTRGLRGAMTAAWQMSETTAALWAFSTEACGGAEEAAAAEDAASAAAGSTLCAVPGARSGGTRSSGAQLTSTLIFSAFCVDLAIAAPRAASAVAAELESVFEPSSDNGRPSSLVSEWMRDGNVKLSALLRDVAALLPPPVKTRLVARLADVLFRPSPALPRSPKESSGHPLGCELLSGGQLLLPSLDYYLLEQYPSSLASRWFLQPLQATAEHLRADYYASADQFHVQCRWLLRLVLTLLYACQSAALPTSTASRPPLERRLRTAQRLYDAWLIPLEKTFGNGTARHGMSVSFNRALVQPHGHMVERLLFTSSPASGVSGVSKVVQQSREWSGILYSAQYRLLLILEKLAHSEVAQVNGTSSTSAKQRTYETMLRQNGGKVSVSLLQTLAEDKQLLLDETPSRSPDGHRLYKLHDGLLDDSGKAVFVYLDDGALFTKVGRARAFQRVKSVEDIFKPLQ” here?
**A.** not soluble
